Values of other authors in paper PMC10775509.
pKd: −log10 of the molar value. Where two headings read alike, the source gives them in different places.

What was measured:
TREM-1 (Mus musculus) [1] = target: TREM-1 (Mus musculus) (UniProt Q9JKE2)
TREM-1 (Mus musculus) [2] = target: TREM-1 (Mus musculus) (UniProt Q9JKE2); remark: listed apart in the source

Sequence of UniProt Q9JKE2 (Q9JKE2 21-230): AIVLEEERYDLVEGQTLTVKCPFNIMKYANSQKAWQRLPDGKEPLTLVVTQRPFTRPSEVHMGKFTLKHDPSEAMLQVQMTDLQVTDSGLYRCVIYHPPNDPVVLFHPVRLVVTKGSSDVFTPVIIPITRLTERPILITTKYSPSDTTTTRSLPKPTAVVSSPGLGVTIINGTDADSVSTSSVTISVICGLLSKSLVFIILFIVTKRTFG

Substance | pKd (TREM-1 (Mus musculus) [1]) | pKd (TREM-1 (Mus musculus) [2])
CIRP (from UniProt P60824) | 6.93 | 
HMGB1 (from UniProt P63158) |  | 4.45
